Substitutions are numbered along the chain they refer to. In names and notes the source's numbering stands.
How the values were obtained:
DmcN-IIIB [1] = biological target: T1, DmcN-IIIB (Drosophila melanogaster, UniProt Q9W197); assay: X-ray crystal structure, […] Å; type: binding; conditions: co-crystallized with MgF3− and Mg2+; pH 7.5; active site
T1 construct: gene cN-IIIB; full length 1-319; His6-SUMO fusion from pET-SUMOadapt in E. coli Rosetta 2(DE3), tag cleaved (stated for crystallization)
T1 sequence (Q9W197 1-319): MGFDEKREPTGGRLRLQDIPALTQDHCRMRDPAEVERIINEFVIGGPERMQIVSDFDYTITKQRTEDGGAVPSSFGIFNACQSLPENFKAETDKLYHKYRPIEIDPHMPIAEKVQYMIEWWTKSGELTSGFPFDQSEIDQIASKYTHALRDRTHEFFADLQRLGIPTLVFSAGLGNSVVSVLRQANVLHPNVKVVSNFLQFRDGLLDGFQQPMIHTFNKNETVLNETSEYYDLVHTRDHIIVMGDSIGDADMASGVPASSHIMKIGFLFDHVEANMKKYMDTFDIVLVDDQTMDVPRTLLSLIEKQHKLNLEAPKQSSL

HscN-IIIA = biological target: T2, HscN-IIIA (Homo sapiens, UniProt Q9H0P0); conditions: 37 °C; preincubated with 5 mM DTT
T2 construct: gene NT5C3A

DmcN-IIIB [2] = biological target: T1, DmcN-IIIB; assay: X-ray crystal structure, […] Å; type: binding; conditions: co-crystallized, no MgF3− density; pH 7.5; active site
[3] = substrate: C[n+]1cn([C@@H]2O[C@H](COP(=O)(O)O)[C@@H](O)[C@H]2O)c2nc(N)[nH]c(=O)c21; assay: colorimetric malachite green phosphate assay; type: biochemical, Drosophila melanogaster; conditions: 25 °C
[4] = substrate: Nc1ccn([C@@H]2O[C@H](COP(=O)(O)O)[C@@H](O)[C@H]2O)c(=O)n1; assay: colorimetric malachite green phosphate assay; type: biochemical, Drosophila melanogaster; conditions: 25 °C
purified protein = substrate: Nc1ccn([C@@H]2O[C@H](COP(=O)(O)O)[C@@H](O)[C@H]2O)c(=O)n1; assay: purified protein; conditions: 37 °C, preincubated with 5 mM DTT
[5] = substrate: C[n+]1cn([C@@H]2O[C@H](COP(=O)(O)O)[C@@H](O)[C@H]2O)c2nc(N)[nH]c(=O)c21; assay: colorimetric malachite green phosphate assay; type: biochemical, Homo sapiens; conditions: 37 °C, preincubated with 5 mM DTT

## C[n+]1cn([C@@H]2O[C@H](CO)[C@@H](O)[C@H]2O)c2nc(N)[nH]c(=O)c21 [7-methylguanosine]
DmcN-IIIB [1]
  X-ray crystal structure, 1.65 Å: crystal structures of ^DmcN-IIIB bound to 7-methylguanosine or cytidine have been deposited

## Nc1ccn([C@@H]2O[C@H](COP(=O)(O)O)[C@@H](O)[C@H]2O)c(=O)n1 [CMP]
HscN-IIIA
  Km: 80 µM

## Nc1ccn([C@@H]2O[C@H](CO)[C@@H](O)[C@H]2O)c(=O)n1 [cytidine]
DmcN-IIIB [2]
  X-ray crystal structure, 2.05 Å: crystal structures of ^DmcN-IIIB bound to 7-methylguanosine or cytidine have been deposited

## C[n+]1cn([C@@H]2O[C@H](COP(=O)(O)O)[C@@H](O)[C@H]2O)c2nc(N)[nH]c(=O)c21 [m^7GMP]
HscN-IIIA
  Km: 15 µM

B1: DmcN-IIIB (Drosophila melanogaster) (protein)
chain: T1 sequence (Q9W197 1-319)
notes: full length 1-319; His6-SUMO fusion from pET-SUMOadapt in E. coli Rosetta 2(DE3), tag cleaved (stated for crystallization)
[3]
  Km: 12 µM
  kcat: 4.8 s⁻¹
  kcat/Km: 403000 M⁻¹ s⁻¹
[4]
  Km: 48 µM
  kcat: 12 s⁻¹
  kcat/Km: 242000 M⁻¹ s⁻¹

B2: DmcN-IIIB (Drosophila melanogaster; G76N) (protein)
chain: T1 sequence (Q9W197 1-319) with G76N
notes: as for B1
[3]; variant FNWW
  Km: 2 µM
  kcat: 1.1 s⁻¹
  kcat/Km: 545000 M⁻¹ s⁻¹
[4]; variant FNWW
  Km: 51 µM
  kcat: 8 s⁻¹
  kcat/Km: 166000 M⁻¹ s⁻¹

B3: DmcN-IIIB (Drosophila melanogaster; F75H/G76N/W121Y) (protein)
chain: T1 sequence (Q9W197 1-319) with F75H, G76N, W121Y
notes: as for B1
[3]; variant HNWY
  Km: 11 µM
  kcat: 0.5 s⁻¹
  kcat/Km: 49500 M⁻¹ s⁻¹
[4]; variant HNWY
  Km: 315 µM
  kcat: 9 s⁻¹
  kcat/Km: 28800 M⁻¹ s⁻¹

B4: DmcN-IIIB (Drosophila melanogaster; F75H/W121Y) (protein)
chain: T1 sequence (Q9W197 1-319) with F75H, W121Y
notes: as for B1
[3]; variant HGWY
  Km: 2 µM
  kcat: 1.5 s⁻¹
  kcat/Km: 755000 M⁻¹ s⁻¹
[4]; variant HGWY
  Km: 93 µM
  kcat: 3 s⁻¹
  kcat/Km: 32500 M⁻¹ s⁻¹

B5: DmcN-IIIB (Drosophila melanogaster; W121Y) (protein)
chain: T1 sequence (Q9W197 1-319) with W121Y
notes: as for B1
[4]; variant FGWY
  Km: 14 µM
  kcat: 6 s⁻¹
  kcat/Km: 410000 M⁻¹ s⁻¹

B6: DmcN-IIIB (Drosophila melanogaster; G76N/W121Y) (protein)
chain: T1 sequence (Q9W197 1-319) with G76N, W121Y
notes: as for B1
[3]; variant FNWY
  Km: 8 µM
  kcat: 0.3 s⁻¹
  kcat/Km: 37800 M⁻¹ s⁻¹

B7: DmcN-IIIB (Drosophila melanogaster; F75H) (protein)
chain: T1 sequence (Q9W197 1-319) with F75H
notes: as for B1
[3]; variant HGWW
  Km: 40 µM
  kcat: 4.2 s⁻¹
  kcat/Km: 106000 M⁻¹ s⁻¹
[4]; variant HGWW
  Km: 490 µM
  kcat: 8 s⁻¹
  kcat/Km: 16000 M⁻¹ s⁻¹

B8: HscN-IIIB (Homo sapiens) (protein)
chain: MAEEVSTLMKATVLMRQPGRVQEIVGALRKGGGDRLQVISDFDMTLSRFAYNGKRCPSSYNILDNSKIISEECRKELTALLHHYYPIEIDPHRTVKEKLPHMVEWWTKAHNLLCQQKIQKFQIAQVVRESNAMLREGYKTFFNTLYHNNIPLFIFSAGIGDILEEIIRQMKVFHPNIHIVSNYMDFNEDGFLQGFKGQLIHTYNKNSSACENSGYFQQLEGKTNVILLGDSIGDLTMADGVPGVQNILKIGFLNDKVEERRERYMDSYDIVLEKDETLDVVNGLLQHILCQGVQLEMQGP
Purified protein
  Km: 79 µM
  kcat: 7 s⁻¹
  kcat/Km: 87100 M⁻¹ s⁻¹
[5]
  Km: 8 µM
  kcat: 0.5 s⁻¹
  kcat/Km: 64500 M⁻¹ s⁻¹
